Test results from paper PMC4189797, “Mycoplasma synoviae enolase is a plasminogen/fibronectin binding protein” (BMC Veterinary Research, 2014).

Test system: O=C(O)[C@@H](CO)OP(=O)(O)O
Assay: purified protein
Settings: 100 mM HEPES, 7.7 mM KCl, 10 mM MgCl2, pH 7.5, 30°C, 2-PGA 0.5, 1.5 and 2.0 mM

With “rMsEno (recombinant M. synoviae enolase) (Mycoplasmopsis synoviae 53)” the Km was 1100 µM.
